The target in test [1] is T1, extracellular domain (ECD) of recombinant human Sortilin with a C-terminal HIS tag (ECD-huSortilin-HIS) (human, UniProt Q99523 78-755).
T1 construct: Bought (R&D Systems); also called human sortilin-ECD; not shown: C-terminal HIS tag
T1 sequence: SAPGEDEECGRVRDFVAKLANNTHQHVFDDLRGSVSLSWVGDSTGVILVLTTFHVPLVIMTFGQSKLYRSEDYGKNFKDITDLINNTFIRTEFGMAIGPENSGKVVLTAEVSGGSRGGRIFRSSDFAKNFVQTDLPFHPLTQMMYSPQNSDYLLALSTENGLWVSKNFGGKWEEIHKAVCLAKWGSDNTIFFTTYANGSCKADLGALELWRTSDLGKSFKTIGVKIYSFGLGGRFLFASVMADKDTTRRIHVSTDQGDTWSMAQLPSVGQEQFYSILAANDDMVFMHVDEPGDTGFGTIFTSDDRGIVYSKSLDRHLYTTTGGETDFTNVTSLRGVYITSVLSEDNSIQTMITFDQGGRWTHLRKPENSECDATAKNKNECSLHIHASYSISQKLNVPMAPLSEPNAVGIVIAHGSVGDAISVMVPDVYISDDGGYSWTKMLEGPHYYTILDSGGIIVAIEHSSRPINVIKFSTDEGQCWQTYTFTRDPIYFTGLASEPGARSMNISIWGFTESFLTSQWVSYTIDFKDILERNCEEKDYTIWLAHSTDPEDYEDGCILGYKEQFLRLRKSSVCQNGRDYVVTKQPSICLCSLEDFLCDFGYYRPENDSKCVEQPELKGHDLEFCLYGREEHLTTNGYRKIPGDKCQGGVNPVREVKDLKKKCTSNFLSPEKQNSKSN
The test can be described thus: ELISA, ECD-huSortilin-HIS coated at 1 ug/mL, goat anti-human IgG-HRP, chemiluminescence. The method, then:
384-well ELISA plates were coated with 1 ug/mL recombinant ECD-huSortilin-HIS (20 uL/well) and incubated overnight at 4° C. all plates were blocked with 3% BSA in PBS for 1 hour at room temperature. Plates were then washed with Tris buffered saline containing 0.1% Tween20 (TBST) three times. 20 uL of humanized anti-Sortilin mAbs diluted 3-fold from 20 ug/mL to 0.3 ng/mL in 1% BSA in TBST were added to the wells, incubated for 1 hour at room temperature and then washed as above. Goat anti-human IgG specific-HRP (Jackson Immunoresearch) diluted 1:7000 in 1% BSA in TBST was then added at 20 uL per well to react with the bound antibodies and plates were incubated for 1 hour before being washed as above. Super signal Pico chemiluminescent ELISA substrate (ThermoFisher) was used for detection. 20 uL of substrate was added to each well and Relative Light Units (RLU) were measured immediately using the SpectraMax Paradigm (Molecular Devices). Data was analyzed and EC₅₀ was calculated using graphed Prism.
(In general: In an ELISA, binding on a coated surface is turned into a signal by an enzyme label.)

Test [2] has as its target T1, extracellular domain (ECD) of …. Nature of the test: SPR (Biacore T200), mAb captured by anti-human antibody on CM5, Sortilin 0.1-300 nM as analyte, global 1:1 fit. The protocol: Analysis was performed using a Biacore T200 to compare the binding affinity of chimeric and humanized antibodies to recombinant human Sortilin. Anti-Human antibody was immobilized on sensor chip CM5 (GE Healthcare Life Sciences) via amine coupling, and humanized antibodies (ligand) were captured to a level to ensure a maximum binding of analyte of 50 RU (approximately 100 RU of ligand binding). Various concentrations of Sortilin (ranging from 0.1 nM to 300 nM) were passed over the captured ligand at 50 μL/min in running buffer (HBS+0.05% P-20, 1 mg/mL BSA) for 300s association time and 1200s dissociation time. Regeneration of the chip surface was accomplished by 2 short injections of 3M MgCl. Data was blank subtracted to both a sensor not containing ligand and 0 nM analyte concentration. Analysis was performed using a global 1:1 fit with Biacore Insight Evaluation software (v2.0) with bulk refractive index set to zero RU.
A general note: SPR reads the build-up and loss of mass on a sensor chip optically.

Where a chain is given by its changes, count along the chain named.

As a reminder, the EC50 is the concentration at which the effect is half-maximal. The Kd is the equilibrium constant for the complex coming apart. What is called koff is a measure of how fast the partners let go of each other. The term kon denotes the rate constant with which the complex forms.

B1: humanized 8H24 hu8H24VHv1/hu8H24VLv1 (antibody, V domains shown)
VH: QAQLVQSGAEVKKPGSSVKVSCKASGYTFTSYSMHWVRQAPGQGLEWIGAIYPGNDATSYNQKFKGRATLTVDKSTSTAYMELSSLRSEDTAVYFCAREGYYGSSFEAWFASWGQGTTVTVSS
VL: DVVMTQTPLSLPVTPGEPASISCRSSQSIVHSNGNTYLEWYLQKPGQSPQLLIYKVSNRFSGVPDRFSGSGSGTDFTLKISRVEAEDVGVYYCFQGSHVLPTFGGGTKVEIK
notes: Human IgG; also called 8H24H1L1
Consider B1, for which, in test [1], the EC50 worked out at 0.14 µg/mL. For the same molecule, in test [2], the Kd was found to be 2.22 nM, the dissociation rate constant (koff) was found to be 0.00141 s⁻¹ and the association rate constant (kon) was found to be 637000 M⁻¹ s⁻¹.

B2: humanized 8H24 hu8H24VHv2/hu8H24VLv2 (antibody, V domains shown)
VH: B1 VH with K12V
VL: B1 VL with L9S, K79T
notes: Human IgG; also called 8H24H2L2
B2: in test [1], the EC50 amounted to 0.07 µg/mL. Also, in test [2], the Kd was determined as 3.22 nM, the off-rate constant (koff) is 0.0015 s⁻¹ and the kon was 466000 M⁻¹ s⁻¹.

B3: humanized 8H24 hu8H24VHv1/hu8H24VLv2 (antibody, V domains shown)
VH: B1 VH
VL: B1 VL with L9S, K79T
notes: Human IgG; also called 8H24H1L2; hu8H24H1L2
Regarding B3, the half-maximal effective concentration (EC50) in test [1] is 0.1 µg/mL. Further, in test [2], the Kd turned out to be 2.98 nM, the koff is 0.00134 s⁻¹ and the kon came out at 450000 M⁻¹ s⁻¹.

B4: humanized 8H24 hu8H24VHv2/hu8H24VLv1 (antibody, V domains shown)
VH: B1 VH with K12V
VL: B1 VL
notes: Human IgG; also called 8H24H2L1
As for B4, the EC50 in test [1] worked out at 0.06 µg/mL. Further, in test [2], the Kd is 2.29 nM, the koff stood at 0.00157 s⁻¹ and the kon was 684000 M⁻¹ s⁻¹.

B5: chimeric 5E20 (antibody, human IgG1, kappa, L234A L235A, V domains shown)
VH: EVQLVESGGDLVKPGGSLKLSCAAPGFTFSTYGMSWVRQTPDKRLEWVAIISSGGSYTYYSDTVKGRFTISRDNAKNTLYLQMSSLKSEDTAMYYCSRSSSHWYFDVWGTGTTVTVSS
VL: DILMTQSPSSMSVSLGDTVSITCHASQGISSNIGWLQQKPGKSFKGLIYHGTNLKDGVPSRFSGSGSGADFSLTISSLESEDFADYFCVQYAQFPYTFGGGTKLEIKR
notes: The entries are described as 'a chimeric 5E20 heavy chain' and 'light chain'
Turning to B5, the EC50 in test [1] came to 0.07 µg/mL. Also, in test [2], the Kd was 0.66 nM.

B6: humanized 11M14 hu11M14VHv3b/hu11M14VLv3b (antibody, V domains shown)
VH: EVQLVESGGGLVQPGGSLRLSCAASGFTFNIYGMSWVRQAPGKGLEWVATISSGGIYTYYPDILKGRFTISRDNAKNSLYGQMNSLRAEDTAVYYCARHPGGAMDYWGQGTLVTVSS
VL: DIQMTQSPSSLSASVGDRVTITCRVSENIYSNLAWYQQKPGKSPKLLVYAATNGADGVPSRFSGSGSGTDYTLTISSLQPEDFATYYCQHFWGTPPWTFGQGTKLEIK
notes: Human IgG; also called 11M14H3bL3b
Take B6: the concentration giving a half-maximal response (EC50) in test [1] was determined as 0.23 µg/mL. In test [2], the Kd was found to be 9.17 nM, the koff worked out at 0.00343 s⁻¹ and the on-rate constant (kon) is 374000 M⁻¹ s⁻¹.

B7: humanized 11M14 hu11M14VHv3b/hu11M14VLv4b (antibody, V domains shown)
VH: B6 VH
VL: B6 VL with G54I
notes: Human IgG; also called 11M14H3bL4b
As to B7, in test [1], the EC50 was determined as 0.1 µg/mL. In test [2], the Kd stood at 7.91 nM, the koff is 0.00344 s⁻¹ and the kon was determined as 435000 M⁻¹ s⁻¹.

B8: humanized 5E20 hu5E20VHv3/hu5E20VLv3 (antibody, V domains shown)
VH: EVQLVESGGGLVQPGGSLRLSCAASGFTFSTYGMSWVRQAPGKRLEWVAIISSGGSYTYYSDTVKGRFTISRDNSKNSLYLQMNSLRAEDTAVYYCSRSSSHWYFDVWGQGTLVTVSS
VL: DIQMTQSPSSVSASVGDRVTITCHASQGISSNIGWLQQKPGKAFKGLIYHGTNLKDGVPSRFSGSGSGADFTLTISSLQPEDFATYFCVQYAQFPYTFGQGTKVEKR
notes: Human IgG; also called 5E20H3L3
With B8, in test [1], the EC50 worked out at 0.09 µg/mL. For the same molecule, in test [2], the Kd was found to be 15.3 nM, the koff turned out to be 0.0028 s⁻¹ and the association rate constant (kon) came to 183000 M⁻¹ s⁻¹.

B9: humanized 5E20 hu5E20VHv4/hu5E20VLv4 (antibody, V domains shown)
VH: B8 VH with G42D
VL: B8 VL with T85D
notes: Human IgG; also called 5E20H4L4
With B9, the EC50 in test [1] is 0.04 µg/mL. Also, in test [2], the Kd was found to be 5.57 nM, the koff came out at 0.00117 s⁻¹ and the kon was found to be 209000 M⁻¹ s⁻¹.

B10: humanized 5E20 hu5E20VHv5/hu5E20VLv4 (antibody, V domains shown)
VH: B8 VH with G42D, R87K
VL: B8 VL with T85D
notes: Human IgG; also called 5E20H5L4
For the molecule B10, the EC50 in test [1] is 0.05 µg/mL. For the same molecule, in test [2], the dissociation constant Kd is 5.46 nM, the koff was found to be 0.00115 s⁻¹ and the kon turned out to be 211000 M⁻¹ s⁻¹.

B11: humanized 5E20 hu5E20VHv4/hu5E20VLv3 (antibody, V domains shown)
VH: B8 VH with G42D
VL: B8 VL
notes: Human IgG; also called 5E20H4L3
Regarding B11, the EC50 in test [1] was determined as 0.07 µg/mL. Also, in test [2], the Kd was 6.36 nM, the koff was found to be 0.00145 s⁻¹ and the kon worked out at 228000 M⁻¹ s⁻¹.

B12: humanized 5E20 hu5E20VHv5/hu5E20VLv3 (antibody, V domains shown)
VH: B8 VH with G42D, R87K
VL: B8 VL
notes: Human IgG; also called 5E20H5L3
Regarding B12, the EC50 in test [1] was 0.07 µg/mL. In test [2], the Kd is 6.01 nM, the koff is 0.0014 s⁻¹ and the association rate constant (kon) amounted to 233000 M⁻¹ s⁻¹.

B13: humanized 5E20 hu5E20VHv3/hu5E20VLv4 (antibody, V domains shown)
VH: B8 VH
VL: B8 VL with T85D
notes: Human IgG; also called 5E20H3L4
In the case of B13, in test [1], the EC50 was 0.07 µg/mL. Further, in test [2], the Kd was 14.8 nM, the koff came to 0.00257 s⁻¹ and the kon came out at 174000 M⁻¹ s⁻¹.

B14: humanized 5E20 hu5E20VHv7/hu5E20VLv3 (antibody, V domains shown)
VH: B8 VH with A40T, G42D
VL: B8 VL
notes: Human IgG; also called 5E20H7L3
Turning to B14, the concentration for a half-maximal effect (EC50) in test [1] was 0.06 µg/mL. In test [2], the equilibrium dissociation constant (Kd) stood at 4.18 nM, the koff is 0.00108 s⁻¹ and the kon stood at 259000 M⁻¹ s⁻¹.

B15: humanized 5E20 hu5E20VHv7/hu5E20VLv4 (antibody, V domains shown)
VH: B8 VH with A40T, G42D
VL: B8 VL with T85D
notes: Human IgG; also called 5E20H7L4; hu5E20H7L4
Take B15: the EC50 in test [1] is 0.04 µg/mL. Also, in test [2], the Kd amounted to 5.02 nM, the koff was 0.0011 s⁻¹ and the association rate constant (kon) turned out to be 218000 M⁻¹ s⁻¹.

The record behind these values is patent US20230235048A1 (PROTHENA BIOSCIENCES, published 2023).
